Results: patent publication US20110218157A1

Tests used:
[1] = target: recombinant TNF-α (Sigma-Aldrich); assay: reverse ELISA: PAP-IC without peptide on TNF-α-coated plate
FcγIIb = FcγIIb (UniProt P31994); assay: reverse ELISA: PAP-IC without peptide on FcγIIb-coated plate
FcγIIIa = FcγIIIa (UniProt P08637); assay: reverse ELISA: PAP-IC without peptide on FcγIIIa-coated plate
FcγIIa (R131 allele) = FcγIIa (R131 allele) (UniProt P12318); assay: reverse ELISA: PAP-IC without peptide on FcγIIa (R131)-coated plate

Chain of recombinant TNF-α (Sigma-Aldrich) (P01375 77-233): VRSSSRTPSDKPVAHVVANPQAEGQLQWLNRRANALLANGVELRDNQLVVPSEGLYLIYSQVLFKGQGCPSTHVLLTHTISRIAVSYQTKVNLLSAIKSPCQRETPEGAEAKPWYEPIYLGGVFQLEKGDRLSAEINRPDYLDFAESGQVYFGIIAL

OD405 [1]: 3.18 OD405
OD405 (FcγIIb): 1.39 OD405
OD405 (FcγIIIa): 1.59 OD405
OD405 (FcγIIa (R131 allele)): 1.6 OD405
Substance: peroxidase-rabbit anti-peroxidase IgG immune complex (PAP complex) (from UniProt P00433 31-338)
